Here are results for 1 molecule from article PMC8913847.

The test concerns the target T1, IRF-3, endogenous in SeV-infected 293T cells (phosphorylated) (human (endogenous in 293T)), Q14653.
T1 chain: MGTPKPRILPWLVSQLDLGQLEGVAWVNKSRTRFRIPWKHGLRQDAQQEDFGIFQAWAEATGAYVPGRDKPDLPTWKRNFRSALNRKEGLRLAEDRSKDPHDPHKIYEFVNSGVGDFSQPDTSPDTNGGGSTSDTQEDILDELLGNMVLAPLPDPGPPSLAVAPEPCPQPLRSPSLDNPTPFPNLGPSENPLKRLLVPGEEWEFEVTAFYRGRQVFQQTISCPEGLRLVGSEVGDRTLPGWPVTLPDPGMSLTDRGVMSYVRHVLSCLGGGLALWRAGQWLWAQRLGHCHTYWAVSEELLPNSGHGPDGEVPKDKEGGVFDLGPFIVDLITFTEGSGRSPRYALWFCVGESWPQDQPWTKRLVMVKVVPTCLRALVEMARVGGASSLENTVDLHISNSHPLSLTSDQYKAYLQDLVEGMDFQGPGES
As to the kind of experiment: native gel or EMSA; native PAGE (7.5% gel, 0.2% sodium deoxycholate in the upper chamber buffer) of total lysates of 293T and 293T DDX3KO cells infected with SeV for the indicated times; immunoblot for IRF-3. As to conditions: remark: other sources report otherwise. On the technique in general: A gel shift assay detects complexes by their altered migration in electrophoresis.

B1: IRF-3, endogenous in SeV-infected 293T cells (phosphorylated), Q14653 1-427 (natural protein)
chain: T1 chain
modifications: here or on the partner: phosphorylation detected with phospho-specific antibody (S396); mobility retardation suggesting phosphorylation at multiple sites; phosphorylation detected with phospho-specific antibody (S396); mobility retardation suggesting phosphorylation at multiple sites
Broadly, the stoichiometry N is the number of molecules, sites or subunits per partner or assembly. The molecule B1 registered a stoichiometry N of 2.
